# Experimental data reported in the DeepSol protein solubility set.
# Test: soluble on expression in E. coli; label from the status in PepcDB or PDB records
row,Sequence,soluble on expression in E. coli
1,MGSDKIHHHHHHMNLRRRGIVVSFHSNMVTVEDEETGERILCKLRGKFRLQNLKIYVGDRVEYTPDETGSGVIENVLHRKNLLTKPHVANVDQVILVVTVKMPETSTYIIDKFLVLAEKNELETVMVINKMDLYDEDDLRKVRELEEIYSGLYPIVKTSAKTGMGIEELKEYLKGKISTMAGLSGVGKSSLLNAINPGLKLRVSEVSEKLQRGRHTTTTAQLLKFDFGGYVVDTPGFANLEINDIEPEELKHYFKEFGDKQCFFSDCNHVDEPECGVKEAVENGEIAESRYENYVKMFYELLGRRKK,not soluble
2,MSDLDTPTPSPHPVLLNLEQFLPYRLSVLSNRISGNIAKVYGDRYGMAIPEWRVITILALYPGSSASEVSDRTAMDKVAVSRAVARLLERGFIRRETHGDDRRRSMLALSPAGRQVYETVAPLVNEMEQRLMSVFSAEEQQTLERLIDRLAKDGLPRMASKD,soluble
3,GLISDIIACPGMDYCALATARSIPVAQEIATRFEELKLEHEIGALKIKISGCINACGHHHVGHIGILGLDRAGVENYQITLGGDATETAAIGERTGPGFAYDQIVPAVERIVETYLDQRRDREESFIETYRRVGMAPFKAALYPE,not soluble
4,MEHICGTSRIAGFRFSLYPMTDDFISVIKSALKKTDTSKVWTKTDHISTVLRGSIDHVFDAAKAIYLHAANSEQHIVMNGTFSIGCPGDTQGDTYLSKGDKRVNEDAVRGLKAEAPCQFALYPMNEPDYMGLIMEAVDIAKAQGTFVQGVHYASELDGDAHDVFSTLEAVFRMAEQQTNHITMTVNLSANSPSRKNRKQG,soluble
5,MTVYHFVGIKGTGMSSLAQILHDMKHTVQGSDYEKRFFTQTALEKRNISILPFDKSNVKEGQVIIAGNAFPDTHEEIVAAKELNIPVHRYHHFLGDLMNQYTSVAVTGAHGKTSTTGLLAHVMQGAHPTSYLIGDGTGHGVENSKYFVFEACEYRRHFLSYNPDYAIMTNIDFDHPDYFTDINDVFSAFQEMALQVKKGIIACGDDEELQKIQAKVPVIFYGFGEDNDFQARNIQKRTDGTIFDVFVRNTYYDTFKITGYGNHSVLNALAVIALCHYENVDVEAVKHQLTTFEGVKRRFNEKPMGEQVIIDDYAHHPTEINATIEAARQKHPEREIVAVFQPHTFSRTEKFLDEFAESLSKADQVYLCDIFGSARENKGELTIEDLQKRIDGAELITDTTTDVLKKHKNGVLIFMGAGDIQKFEAAYVKEVQVAEK,not soluble
6,MSLNIAKGEPVKITTIDVGNKSFPVKITFIDRKGVSYYIDVAMSRTNSGMEPADFQAEKRINYFPNAFSFTNPDVKTRESIQSKYIGQSVYPQKTIRVKQTELLRYTPLHIKDVQPEKAGTSATLLLTDIQGNTYQVKVDLKYDPILKNEDFIEDLFGFSDIRKKYPNISESNWLMLAKGEVKPGMTTEECKLAIGEPIEIRVRTDTRFETWLYRGKILEFENGILLRAKEGHHHHHH,soluble
7,MGSDKIHHHHHHMESYKGNKTTRKQIVSSIQMDIIKNRKIGEKLPSESEYANLFGTARSTVQKALRDLETMQLIEKVQGKGSFVIFKHPKIEMFNFRGFSEYAHQIGATPITKLIKKKKIDNGHKMLLKRLRSIKINDEIAPLTFDESILSLDDFPGLDQYNFEKGSLYDVLRNKYNTYPAIANLEVIPVAPEEEISNLLRVSKGNPLLKVNGFVYDSNSEIMEKVGIIYSDQARFKFTLGI,not soluble
8,FLILLRKTLEQLQEKDTGNIFSEPVPLSEVPDYLDHIKKPMDFFTMKQNLEAYRYLNFDDFEEDFNLIVSNCLKYNAKDTIFYRAAVRLREQGGAVLRQARRQAEKMG,soluble
9,MVAVPEGYESLLERPLYGHLATVRPDGTPQVNAMWFAWDGEVLRFTHTTKRQKYRNIKANPAVAMSVIDPDNPYRYLEVRGLVEDIVPDPTGAFYLKLNDRYDGPLTEPPADKADRVIIVVRPTAFSKQVA,soluble
10,MSLSPARAQEEISRLQQQIKQWDDDYWKEGKSEVEDGVYDQLSARLTQWQRCFGSEPRDVMMPPLNGAVMHPVAHTGVRKMVDKNALSLWMRERSDLWVQPKVDGVAVTLVYRDGKLNKAISRGNGLKGEDWTQKVSLISAVPQTVSGPLANSTLQGEIFLQREGHIQQQMGGINARAKVAGLMMRQDDSDTLNSLGVFVWAWPDGPQLMSDRLKELATAGFTLTQTYTRAVKNADEVARVRNEWWKAELPFVTDGVVVRAAKEPESRHWLPGQAEWLVAWKYQPVAQVAEVKAIQFAVGKSGKISVVASLAPVMLDDKKVQRVNIGSVRRWQEWDIAPGDQILVSLAGQGIPRIDDVVWRGAERTKPTPPENRFNSLTCYFASDVCQEQFISRLVWLGAKQVLGLDGIGEAGWRALHQTHRFEHIFSWLLLTPEQLQNTPGIAKSKSAQLWHQFNLARKQPFTRWVMAMGIPLTRAALNASDERSWSQLLFSTEQFWQQLPGTGSGRARQVIEWKENAQIKKLGSWLAAQQITGFEEGHHHHHH,soluble
11,MSLTESGSCSTARQAKQKRKSHSLSIRRTNSSEQERTGLPREMLEGQDSKLPSSVRSTLLELFGQIEREFENLYIENLELRREIDTLNERLAGEGQAIDGAELSKGQLKTKASHSTSQLSQKLKTTYKASTSKIVSSFKTTTSRAICQLVKEYIGHRDGIWDVSVTRTQPIVLGTASADHTAMLWSIETGKCLVKYAGHVGSVNSIKFHPSEQLALTASGDQTAHIWRYVVQLPTPQPVADTSQQISGEDEIECSDKDEPDIDGDVSSDCPTVRVPLTSLKSHQGVVIAADWLVGGKQVVTASWDRTANMYDVETSELVHSLTGHDQELTHCCTHPTQRLVVTSSRDTTFRLWDFRDPSIHSVNVFQGHTDTVTSAVFTVGDNVVSGSDDRTVKVWDLKNMRSPIATIRTDSAINRINVCVGQKIIALPHDNRQVRLFDMSGVRLARLPRSSRQGHRRMVCCSAWSEDHPICNLFTCGFDRQAIGWNINIPALLQEKEGHHHHHH,not soluble
12,MMDYPSIDTLLESAHIVTLPMKYPFMGLSERQAVLFEGPNSWAEYSPFMGCNDTRMWLASAIEYGWGNTNVLSVPNLDLDNTNFASRSKYGYIANPQTSNKDHSDNKRFYTQTKNHREIPVNAILPDIPASKMSEILGKDLQGCKCVKIKVGKHFQDRDIHRIRAVLDFMGADTMLRLDANCKWNVSETLNNLDVLEDNDLLENVSYIEQPCRTTRELITLKQKMDTRGYVTKIAIDESLRDLLLHWQKNRKWSNNSGITYTTELRETLSACDMLVLKLQPMGGMRAVADLLESIKNNIKVNVGYTVSSSLETSLGIEMGLALALNLPNITLPVGLATAGLLDADITDDPLLPNKGYITPRKIEVNKKLLNRYAADKRHVVWWHRRIRAAHRALFQDLSD,soluble
13,MSEQPQQRSTEEVEAIKEDILTALETVIDPELGIDIVNLGLIYEVEFAEETGDTVIKMTLTTMGCPLADVLTEQIHGVLKDIPEVNNIEVKLVWYPAWTTDKMSRYARIALGIR,not soluble
14,PVSQPDAPGHQRKVVSWIDVYTRATCQPREVVVPLTVELMGTVAKQLVPSCVTVQRCGGCCPDDGLECVPTGQHQVRMQILMIRYPSSQLGEMSLEEHSQCECRPKKKDSAVKPDSPRPLCPRCTQHHQRPDPRTCRCRCRRRSFLRCQGRGLELNPDTCRCRKLRR,soluble
15,MHESVTANIENVKKVAHHIQKLTSIVPEIGIICGSGLGKLADGVKDKITIPYTKIPNFPQTSVVGHSGNLIFGTLSGRKVVVMQGRFHMYEGYSNDTVALPIRVMKLLGVKILMVSNAAGGLNRSLKLGDFVILKDHIYLPGLGLNNILVGPNQEAFGTRFPALSNAYDRDLRKLAVQVAEENGFGNLVHQGVYVMNGGPCYETPAECTMLLNMGCDVVGMSTIPEVVIARHCGIQVFAVSLVTNISVLDVESDLKPNHEEVLATGAQRAELMQSWFEKIIEKLPKD,soluble
16,MTGQSTGTGEYSDFVAVFRDRYEKLAGKLRGRVNHRPTDAIENMGGGSDAALIGMVSDIRSTASGHWLVELEDTNGTFPCLVMKDRPIADLVQQLLMDEVIAVEGTLADDAGILFVDSLYFPDVPRTHNPSTADRHVQAALISDVHVGSQEFMEDAWHRFTDWLHTPEAEHVEYLLIAGDMVEGVGIYPEQDKELDIIDIYDQYRAFSEYLKEVPADMEIRMIPGNHDAVRLAEPQPGFDEELRDIMSAHDAQVHSNPSLVTVEGVTVLMYHGVSLDEVIAELPDEEASYEEPHRAMYQLLKKRHVAPQYGGHTRLAPEDRDYLVMEEVPDVFHTGHVHKLGWGEYHNVVALNSGCWQAQTEFQKSVNIDPDAGFAPILDLDTLEMTVRKFS,not soluble
17,KGTLYVVGTPIGNLRDITLRALEILSAVDCIAAEHIQHAQKLLAGHALHTTSTRIMPLHQHNEGSAVEKIIELLGSGKSVALISDAGTPAISDPGALLVQQVLARSLPVVPIPGA,not soluble
18,MNTETSTQSAPSDTYDTSIYYNSSPRVTANDITTLTSFAAPAPQVLDYANTQYDIYRNQPAYYLPSYAPTAPTTFYSDFANFNVTRSQDFASVPAVANSSDVKPIIIKQEKSTPNATELIIQSRVDSQHEDTTTSTAGGAGVGGPRRTKFVLSVDRRKAATMRERRRLRKVNEAFEVVKQRTCPNPNQRLPKVEILRSAIDYINNLERMLQQAGKMTKIMEQNQHLQMTQQINGAPPHDYVTSSHFASSSYNPENMFDDDDLTDSDDDRDHHKLGNAVDLRRRNSLDRLSRIVASIPNEEAMTDEQLLQPANDVIDGEKKLEML,not soluble
19,MQKKEKEGRRKLKYDSNDGLLPEIRRVCGFPHHISEELSARGSGKKKKQVEEEWKWPEAQICGICSSGGNILCCEQCPASFHLACIGYESSDLPDDNFYCNRCRNLPENVRLFPPEKCSPSVNPVLRVENENHRNWEAIEYHCNRLRDEEQAEKMKKDVAYGPKSEFAEIQDCFRDKNLLKALGMANPMDYTIPPEFQADRDCFSGDAMEDKRPTIMGEVCAECNLKDDWTRMLKCDFCDLIWHQKCVTPPLIHVRAYFYWMCPRHPETVIDSVLIGDEISREDRRRLYDKYADVEPSYEIFEEFCIKTEQFRMKSEVFDSEEMYYDPEEASTSFMQTVIKPRQTSRKTTGRSASKKKSNGRFFASSWDFPGLSSRETSPSRKNSRKSPDSVATERKDRVLDKIDKKRSIKLTEEEIIMSIMPVEESSRAEYLTQKMLGTDIEQSTNFFNRHSAMIDRIRAFYGNLPEKELIKLMREDLDPVETIRGGGTQSIISQNEKPYRKKLKADVEVLIQHVGLGTDSTERHFNSIGTEAFYRRCAPPVTARNVLNQKTLREVVLNSQKEAHEGAGVYEYHAEPEQLENLVLLAYEPSFESPEDRDTYFVPSMTIWSKEPICALTRKWAASGASKQAPPSSSSSEAPSVEAEVKEEVVEEEDEENEARMRRESTATSSIVYNNDTGPLEFIEENMPPPAATITEKSDPFDFSSLEMPEIHEKAETVYEAEGYYGESDDLPLDLRRTKSESDLVDRIIWPLVRSALQNFIRREDCHQMHLEHNYSSLYQTHDSDEENQPVVEVEKLITYEEYQENLYSAEFASPQTPPPIPPPPAVYYDNFSDAPRKRGRPVGSRNRKEGDTTIPKQQRKRNPQPVGRGRGRGGGRPRGSRSSRGSMDDGGGSRRHSTASDANESAELLNQPVTKQLRDEIKEIKLKYTKMMMDRGFEQAKDEYFRNRDAALSKWTPEQWKEHNEQCVAARLSSLIPYDQRYFLPTQRVLARLDLEDGDLRLPAVHLPIAIQRCVTKLGTAHDCHVRCDKLTGDAWCSVLADYHCDIVRDYYSDNFYISTLGTEAVFVDGRAVRRPRLTPFEAAEKLRTRGSSTIIPPHIKCRCQKHSDLQISRQESTGELVRCGILKLEHGARIQIGCVAFIFSRI,not soluble
